# Source: PMC1762330, “‘Fractional Recovery’ Analysis of a Presynaptic Synaptotagmin 1-Anchored Endocytic Protein Complex” (PLoS ONE, 2006)
# T1: AP180 (rat (endogenous in rat brain …, UniProt Q05140 1-915))
# T1 construct: AP180 (clathrin coat assembly protein), endogenous in rat brain synaptosomes; source: endogenous, rat brain synaptosome lysate
# T1 sequence (looked up): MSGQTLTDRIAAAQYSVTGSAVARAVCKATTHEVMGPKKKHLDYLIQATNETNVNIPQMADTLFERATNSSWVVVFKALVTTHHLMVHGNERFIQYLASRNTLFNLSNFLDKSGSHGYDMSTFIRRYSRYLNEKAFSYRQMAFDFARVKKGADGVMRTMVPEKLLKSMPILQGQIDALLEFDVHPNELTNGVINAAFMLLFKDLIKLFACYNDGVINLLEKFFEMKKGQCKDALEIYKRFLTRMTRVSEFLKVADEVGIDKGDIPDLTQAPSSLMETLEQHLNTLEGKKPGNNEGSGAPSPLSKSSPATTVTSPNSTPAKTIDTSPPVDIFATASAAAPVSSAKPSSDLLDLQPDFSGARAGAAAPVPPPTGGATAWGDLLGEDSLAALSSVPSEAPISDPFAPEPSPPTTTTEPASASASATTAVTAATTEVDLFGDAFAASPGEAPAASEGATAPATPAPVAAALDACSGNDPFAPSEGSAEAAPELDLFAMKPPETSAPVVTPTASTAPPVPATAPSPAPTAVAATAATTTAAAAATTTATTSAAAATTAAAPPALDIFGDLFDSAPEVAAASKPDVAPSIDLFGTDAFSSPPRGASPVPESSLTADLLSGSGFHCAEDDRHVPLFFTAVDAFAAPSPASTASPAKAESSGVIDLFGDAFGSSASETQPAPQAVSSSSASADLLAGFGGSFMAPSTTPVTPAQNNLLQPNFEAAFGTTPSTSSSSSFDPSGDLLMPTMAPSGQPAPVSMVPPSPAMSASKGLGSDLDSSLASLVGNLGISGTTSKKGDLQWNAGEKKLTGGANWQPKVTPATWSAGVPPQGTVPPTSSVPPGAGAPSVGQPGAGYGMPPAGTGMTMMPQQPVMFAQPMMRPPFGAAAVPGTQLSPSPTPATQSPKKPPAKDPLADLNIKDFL
# B1: stonin2 (natural protein, UniProt D4AB66 1-895, looked up)
# chain: MTTLDHVIATHQSEWVSFSEEPLFPTPLEGGTEEHFPGLSSSSDRSESSSGENHAVDEGSQDLSHSEQDDSSEKMGLISEAASPPGSPVQPTPDLASAISNWVQFEDDTPWSNTSAPHKETALTLTVPCWTCPSLDSLRRCPLASESSWTTHSEDTSSPSVAPSYTDLQLINAEEQASGRASGTDSTDNSSSLQEDEEVEMETISWWAGSPAMNGHPAVPQVTTARFPSWVTFEDNEVGCPSPTVPSPKKPNAPSAATAGPDVPFNSTGSFKRDRPKSTLMNLSKVQKLDISSLNRPPSVTEAPPWRATNPFLNESLQDIQPSPINPFSAFFEEQERRSQNSSISGTSGKSQRDSLIVIYQDAISFDDSGKSQSHPDAIEKLKQLQIDDPDPVGNAALPDDDPTASVEPDAPSPTSALSQPRDGWPMMLRIPEKKNIMSSRHWGPIYIKLTDSGYLQLYYEQGLEKPFREFKLEICHEVSEPRLQNYDENGRIHSLRIDRVTYKEKKKYQPKPAVAHAAEREQVIKLGTTNYDDFLSFIHAVQDRLMDLPVQSMDLSTVGLNYLEEEITVDIRDEFSGTVSKGDNQILQHHVLTRIHILSFLSGLAECRLGLNDILIKGNEIVSRQDIMPTTTTKWIKLHECRFHGCVDEDVFNSSRVILFNPLDACRFELMRFRTVFAEKTLPFTLRTAASINGAEVEVQSWLRMSPGFSSNRDPLTQVPCENVMVRYPVPSEWVKNFRRESVLGEKSLKAKVNRGASFGSAGASGSEPVMRVTLGTAKYEHAFNSIVWRINRLPDKNSASGHPHCFFCHLELGSDREVPSRFANHVNVEFSMPTTSASKAAVRSISVEDKPDVRKWVNYSAHYSYKVEIEQKKSLKPDFEGEDLENPKECGVQ
# notes: stonin 2, endogenous in rat brain synaptosomes; source: endogenous, rat brain synaptosome lysate
# Key:
# Assay in all cases: co-IP; fractional recovery: immunoprecipitate from rat brain synaptosome lysate on beads split in three aliquots, 15 min on ice in RIPA buffer with 150, 650 or 1150 mM total salt; what stayed on the beads found by Western blot and densitometry; FR = recovery at 1150 mM / recovery at 150 mM, normalised to the FR of the IP-protein
# [1] = target: stonin2 (rat (endogenous in rat brain synaptosomes)) (UniProt D4AB66)
# stonin2 = target: B1; settings: partners not purified
# AP180 = target: T1, AP180; settings: partners not purified
# heavy chain clathrin = target: T2, heavy chain clathrin (rat (endogenous in rat brain …, UniProt P11442 1-1675)); settings: partners not purified
# T2 construct: clathrin heavy chain, endogenous in rat brain synaptosomes; also called H-clathrin; H-Cl; source: endogenous, rat brain synaptosome lysate
# T2 sequence (P11442 whole entry): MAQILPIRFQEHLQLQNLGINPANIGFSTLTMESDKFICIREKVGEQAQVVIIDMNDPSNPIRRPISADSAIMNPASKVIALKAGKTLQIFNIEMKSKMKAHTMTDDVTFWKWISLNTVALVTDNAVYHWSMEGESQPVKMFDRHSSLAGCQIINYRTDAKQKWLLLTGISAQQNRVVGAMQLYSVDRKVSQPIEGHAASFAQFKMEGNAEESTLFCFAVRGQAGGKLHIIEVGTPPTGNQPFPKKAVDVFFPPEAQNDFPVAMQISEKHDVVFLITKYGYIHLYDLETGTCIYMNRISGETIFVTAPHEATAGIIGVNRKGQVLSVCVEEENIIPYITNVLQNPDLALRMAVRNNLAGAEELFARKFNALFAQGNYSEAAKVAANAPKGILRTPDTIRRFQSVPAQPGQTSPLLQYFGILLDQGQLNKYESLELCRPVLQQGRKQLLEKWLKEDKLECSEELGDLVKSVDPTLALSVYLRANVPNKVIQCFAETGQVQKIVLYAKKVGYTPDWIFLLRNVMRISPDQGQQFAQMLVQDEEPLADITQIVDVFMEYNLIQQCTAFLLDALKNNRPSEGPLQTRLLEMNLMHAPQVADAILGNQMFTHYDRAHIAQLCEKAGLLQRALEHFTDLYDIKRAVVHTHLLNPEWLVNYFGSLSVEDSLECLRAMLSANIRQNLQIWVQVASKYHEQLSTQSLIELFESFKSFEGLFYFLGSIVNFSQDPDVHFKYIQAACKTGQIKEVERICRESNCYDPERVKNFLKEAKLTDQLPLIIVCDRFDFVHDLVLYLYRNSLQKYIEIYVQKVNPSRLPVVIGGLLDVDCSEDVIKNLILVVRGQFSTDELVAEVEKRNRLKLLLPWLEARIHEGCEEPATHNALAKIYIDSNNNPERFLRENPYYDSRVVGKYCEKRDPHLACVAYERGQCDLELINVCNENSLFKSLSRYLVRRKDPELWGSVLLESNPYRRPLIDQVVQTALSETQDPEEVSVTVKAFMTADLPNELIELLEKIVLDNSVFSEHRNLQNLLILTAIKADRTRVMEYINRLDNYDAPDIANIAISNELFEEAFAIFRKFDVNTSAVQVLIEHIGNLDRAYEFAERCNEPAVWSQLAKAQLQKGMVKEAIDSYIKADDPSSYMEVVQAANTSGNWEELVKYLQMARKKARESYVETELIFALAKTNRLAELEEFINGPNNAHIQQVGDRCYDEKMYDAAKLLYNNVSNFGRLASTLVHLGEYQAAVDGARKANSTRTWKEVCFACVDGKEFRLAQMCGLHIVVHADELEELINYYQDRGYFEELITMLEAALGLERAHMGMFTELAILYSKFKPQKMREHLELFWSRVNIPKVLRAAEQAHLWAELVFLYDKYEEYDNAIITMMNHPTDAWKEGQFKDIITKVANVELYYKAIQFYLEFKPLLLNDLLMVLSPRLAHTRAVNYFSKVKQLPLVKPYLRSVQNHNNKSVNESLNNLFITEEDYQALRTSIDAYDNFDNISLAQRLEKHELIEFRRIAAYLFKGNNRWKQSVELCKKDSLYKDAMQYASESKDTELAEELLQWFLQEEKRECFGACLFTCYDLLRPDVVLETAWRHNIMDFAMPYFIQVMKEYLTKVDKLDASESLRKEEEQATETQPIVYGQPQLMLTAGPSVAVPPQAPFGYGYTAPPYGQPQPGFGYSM
Molecule,fractional recovery (FR; recovery at 1150 mM salt / recovery at 150 mM salt) [1],fractional recovery (FR; recovery at 1150 mM salt / recovery at 150 mM salt) (stonin2),other results
long-variant intersectin (natural protein),1,–,–
light chain clathrin (from UniProt P08081 1-248) (natural protein),0.84,–,–
"synaptotagmin 1 (natural protein, UniProt P21707 1-421, looked up, synaptotagmin 1, endogenous in synaptosomes from brains of 2-10 day old Sprague Dawley rats; also called STG; STG 1; source: endogenous, rat brain synaptosome lysate) MVSASHPEALAAPVTTVATLVPHNATEPASPGEGKEDAFSKLKQKFMNELHKIPLPPWALIAIAIVAVLLVVTCCFCVCKKCLFKKKNKKKGKEKGGKNAINMKDVKDLGKTMKDQALKDDDAETGLTDGEEKEEPKEEEKLGKLQYSLDYDFQNNQLLVGIIQAAELPALDMGGTSDPYVKVFLLPDKKKKFETKVHRKTLNPVFNEQFTFKVPYSELGGKTLVMAVYDFDRFSKHDIIGEFKVPMNTVDFGHVTEEWRDLQSAEKEEQEKLGDICFSLRYVPTAGKLTVVILEAKNLKKMDVGGLSDPYVKIHLMQNGKRLKKKKTTIKKNTLNPYYNESFSFEVPFEQIQKVQVVVTVLDYDKIGKNDAIGKVFVGYNSTGAELRHWSDMLANPRRPIAQWHTLQVEEEVDAMLAVKK",–,0.98,–
B1,–,–,fractional recovery (FR; recovery at 1150 mM salt / recovery at 150 mM salt) (AP180): 1 ± 0.17; fractional recovery (FR; recovery at 1150 mM salt / recovery at 150 mM salt) (heavy chain clathrin): 0.78
"short-variant intersectin (natural protein, UniProt Q9WVE9-1 1-1217, looked up, intersectin (intersectin 1 by the antibody's name Intersectin/ESE-1), short variant, told from the long variant by the size of its band; endogenous in rat brain synaptosomes; they are told apart only as bands on the blot; not checked; also called S-intersectin; S-Int; source: endogenous, rat brain synaptosome lysate) MAQFPTPFGGSLDIWAITVEERAKHDQQFQSLKPISGFITGDQARNFFFQSGLPQPVLAQIWALADMNKDGRMDQVEFSIAMKLIKLKLQGYQLPPALPPVMKQQPAAISSAPAFGIGGMAGMPPLTAVAPVPMGSIPVVGMSPPLVSSVPQAAVPPLANGAPPVIQPLPAFAHPAATLPKSSSFSRSGPGSQLNTKLQKAQSFDVASAPAAAEWAVPQSSRLKYRQLFNSHDKTMSGHLTGPQARTILMQSSLPQAQLASIWNLSDIDQDGKLTAEEFILAMHLIDVAMSGQPLPPVLPPEYIPPSFRRVRSGSGMSVISSSSADQRLPEEPSSEDEQQVEKKLPVTFEDKKRENFERGNLELEKRRQALLEQQRKEQERLAQLERAEQERKERERQEQERKRQLELEKQLEKQRELERQREEERRKEIERREAAKRELERQRQLEWERNRRQELLTQRNKDQEGIVVLKARRKTLEFELEALNDKKHQLEGKLQDIRCRLATQRQEIESTNKSRELRIAEITHLQQQLQESQQMLGRLIPEKQILSDQLKQVQQNSLHRDSLLTLKRALEAKELARQQLREQLDEVEKETRSKLQEIDVFNNQLKELREIHSKQQLQKQRSIEAERLKQKEQERKSLELEKQKEEGQRRVQERDKQWQEHVQQEEQQRPRKPHEEDKLKREDSVKKKEAEERAKPEVQDKQSRLFHPHQEPAKPAQAPWPTTEKGPLTISAQESAKVVYYRALYPFESRSHDEITIQPGDIVMVKGEWVDESQTGEPGWLGGELKGKTGWFPANYAEKIPENEIPTPAKPVTDLTSAPAPKLALRETPAPLPVTSSEPSTTPNNWADFSSTWPSSTNEKPETDNWDTWAAQPSLTVPSAGQLRQRSAFTPATATGSSPSPVLGQGEKVEGLQAQALYPWRAKKDNHLNFNKSDVITVLEQQDMWWFGEVQGQKGWFPKSYVKLISGPVRKSTSIDTGPTEAPSSLKRVASPAAKPAIPGEEFVAMYTYESSEHGDLTFQQGDVIVVTKKDGDWWTGTVGETSGVFPSNYVRLKDSEGSGTAGKTGSLGKKPEIAQVIASYTATGPEQLTLAPGQLILIRKKNPGGWWEGELQARGKKRQIGWFPANYVKLLSPGTSKITPTELPKTAVQPAVCQVIGMYDYTAQNDDELAFSKGQIINVLSKEDPDWWKGEVSGQVGLFPSNYVKLTTDMDPSQQ",–,0.83,–
